Measured values taken from patent publication US20240294622A1.

What was measured:
[1] = molecular target: HGREM1-His (ACRO) (human) (UniProt O60565); experiment: ELISA, binding to hGremlin-his
[2] = molecular target: HGREM1-His (ACRO) (human) (UniProt O60565); experiment: blocking ELISA, Human Gremlin-1 binding to BMP7; column OD450
[3] = molecular target: HGREM1-His (ACRO) (human) (UniProt O60565); experiment: blocking ELISA, Human Gremlin-1 binding to BMP4; column OD450
[4] = molecular target: HGREM1-His (ACRO) (human) (UniProt O60565); experiment: blocking ELISA, Human Gremlin-1 binding to BMP2; column OD450
[5] = molecular target: HGREM1-His (ACRO) (human) (UniProt O60565); experiment: blocking ELISA, Human Gremlin-1 binding to BMP7; column Percentage
[6] = molecular target: HGREM1-His (ACRO) (human) (UniProt O60565); experiment: ELISA: antibody coated, Gremlin-his titrated, anti-his-HRP; the concentration is that of Gremlin-his
[7] = molecular target: HGREM1-His (ACRO) (human) (UniProt O60565); experiment: Fortebio: Gremlin-his loaded (2ug/ml) on the sensor, antibody at 100, 50 and 25 nM
[8] = molecular target: HGREM1-His (ACRO) (human) (UniProt O60565); experiment: Fortebio: Gremlin-his loaded (2ug/ml), antibody at 100 nM; unit from the axis of the sensorgram
[9] = molecular target: HGREM1-His (ACRO) (human) (UniProt O60565); experiment: Fortebio: Gremlin-his loaded (2ug/ml), antibody at 25 nM; unit from the axis of the sensorgram
[10] = molecular target: HGREM1-His (ACRO) (human) (UniProt O60565); experiment: blocking ELISA, Human Gremlin-1 binding to BMP2; column Percentage
[11] = molecular target: hGREM1 (source and construct not stated) (human) (UniProt O60565); experiment: ELISA on hGREM1
[12] = molecular target: HGREM1-His (ACRO) (human) (UniProt O60565); experiment: blocking ELISA, Human Gremlin-1 binding to BMP4; column Percentage
[13] = molecular target: HGREM1-His (ACRO) (human) (UniProt O60565); experiment: Fortebio: Gremlin-his loaded (2ug/ml), antibody at 50 nM; unit from the axis of the sensorgram
[14] = molecular target: HGREM1-His (ACRO) (human) (UniProt O60565); experiment: competition ELISA, Gremlin-his binding to coated BMP7
[15] = molecular target: HGREM1-His (ACRO) (human) (UniProt O60565); experiment: Fortebio: Gremlin-his loaded (2ug/ml) on the sensor, antibody at 100, 50 and 25 nM; kdis(1/s)

Chain of HGREM1-His (ACRO) (human) (O60565 25-184): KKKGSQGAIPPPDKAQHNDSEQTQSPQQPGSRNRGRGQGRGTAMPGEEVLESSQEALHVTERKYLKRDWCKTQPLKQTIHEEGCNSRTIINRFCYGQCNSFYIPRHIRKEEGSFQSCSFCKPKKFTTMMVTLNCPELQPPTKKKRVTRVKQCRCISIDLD
Chain of hGREM1 (source and construct not stated) (human) (O60565 25-184 limits assumed): as the sequence (O60565 25-184) above

EC50 [1]: 0.0575 µg/mL | IC50 [2]: 0.536 µg/mL | IC50 [3]: 0.638 µg/mL | IC50 [4]: 0.797 µg/mL | IC50 [5]: 0.536 µg/mL | EC50 (read off the curve) [6]: 0.01 µg/mL | Kd [7]: 2.58 nM | kon [7]: 338000 M⁻¹ s⁻¹ | Response [8]: 0.649 nm | Response [9]: 0.313 nm | IC50 [10]: 0.797 µg/mL | EC50 [11]: 0.115 µg/mL | IC50 [12]: 0.638 µg/mL | Response [13]: 0.513 nm | maximal blocking percentage [14]: < 30% | koff [15]: 0.00087 s⁻¹
B1: benchmark antibody 6245P (antibody, from another filing, V domains shown)
VH: EVQLVESGGGLVQPGGSLRLSCAASGFTFNSFWMSWVRQAPGKGLEWVANIKQDGSEKYYVDSVKGRFTISRDNAKNSVYLQMNSLRAEDTAVYYCARDLVTSFDYWGQGTLVTVSS
VL: DIQMTQSPSSLSASVGDRVTITCQASQDINNYLNWYQQKPGKAPKLLIYDASYLETGVPSGFSGSGSGTDFTFTISSLQPEDIATYYCQQYDSLPYTFGQGTKLEIK
